{"source": "patent US9403908B2", "about": "“Method for altering hematopoietic progenitor cell adhesion, differentiation, and migration” (The Regents of the University of California, priority 2003, dated 2016)", "key": {"[1]": {"system": "bFGF or VEGF induced angiogenesis in Matrigel", "assay": "Murine Matrigel angiogenesis assay (bFGF or VEGF)", "assay_type": "in vivo, mouse", "details": "peptide antagonist; 50 μM in bFGF matrigel, nude mice (FIG. 19G)", "procedure": "(B, C) Adhesion of endothelial cells to plastic plates coated with 5 μg/ml CS-1 fibronectin, in the presence of medium, anti-α4β1 (HP1/2) or control antibodies (P1F6). (D) Cryosections from bFGF stimulated, saline or antibody-treated CAMs were immunostained to detect blood vessel expression of von Willebrand Factor. (E) Angiogenesis was initiated in FVB/N mice by corneal transplantation of polymerized pellets containing 400 ng/ml of VEGF. Animals (n=5) were treated on day 0 and day 3 with anti-α4β1 (PS/2) or control IgG (cIgG). Fifteen minutes prior to sacrifice on day 5, mice were injected intravenously with endothelial specific lectin, Bandeira simplifolia-FITC and tissues were cryopreserved. Angiogenic response to VEGF was quantified as the percent green fluorescent area visible under high power magnification (100×). […] Matrigel plugs were homogenized in RIPA buffer and fluorescence intensity determined.\n[…] Microvessel density was quantified in 10 randomly selected 200× microscopic fields for each plug in each treatment group (n=8). […] Angiogenic response to VEGF was quantified as the percent green fluorescent area visible at 100× magnification. […] Tumor dimensions were determined every other day and tumor mass was determined after four weeks of treatment. […] Statistical significance was determined using Student's t-test."}, "[2]": {"system": "endothelial progenitor cells (EPCs)", "assay": "Adhesion of DiI-labeled EPCs to endothelial (HUVEC) monolayers", "assay_type": "cell-based, human", "details": "DiI-labeled EPCs on proliferating HUVEC monolayers; FIG. 17D", "procedure": "(A-B) Adhesion of purified EPCs on plastic plates coated with (A) 5 μg/ml CS-1 fibronectin or (B) recombinant soluble VCAM in the presence of medium, anti-α4β1 (HP1/2) or control antibodies (P1F6). (C) Adhesion of DiI-labeled purified EPCs to HUVEC monolayers VCAM in the presence of medium, anti-α4β1 (HP1/2) or control antibodies (P1F6). Cells were quantified by counting adherent red fluorescent cells per 200× microscopic field. (D) Adhesion of DiI-labeled purified EPCs to HUVEC monolayers in the presence of medium, rsVCAM or control protein. Statistical significance was determined using Student's t-test.\nTo determine whether EPCs can attach to proliferating vascular endothelium that has been stimulated by angiogenic growth factors, we plated EPCs labeled with DiI-acetylated LDL onto proliferating endothelial monolayers. EPCs bound strongly to endothelium in a α4β1 dependent manner (FIG. 17C) and that rsVCAM blocked EPC attachment to endothelial monolayers (FIG. 17D). […] Thus, α4β1 mediates the attachment of EPCs to VCAM on vascular endothelium. […]"}, "human CD34+ stem cells": {"system": "human CD34+ stem cells", "assay": "CD34+ stem cell adhesion to HUVEC monolayers", "assay_type": "cell-based", "details": "60 minutes, 25 μg/ml HP2/1 or P1F6 (FIG. 34d-e)", "procedure": "Adhesion assays were performed on plastic 48 well plates coated with 5 μg/ml of recombinant H120 CS-1 fibronectin (from Martin J. Humphries, University of Birmingham, UK) as described (Kim et al. (2000) Am. J. Pathol. 156, 1345-1362). Stem cells were incubated on coated plates for 30 minutes in the presence of 25 μg/ml anti-α4β1_(HP2/1) or anti-αvβ5 (P1F6, from Dr. David Cheresh, the Scripps Research Institute). CMTMR labeled stem cells were incubated in HEPES buffered serum free culture medium in the presence of 25 μg/ml HP2/1 or P1F6 on HUVEC monolayers for 60 minutes at 37° C. Unbound cells were removed by washing gently with PBS. Cells were fixed in 3.7% parafomaldeyde. Representative fields were photographed at 200× and the number of cells adhering per field was quantified in five representative fields per treatment condition."}}}
{"molecule": "EILDV", "values": [{"measurement": "neovascularization in Matrigel model", "setting": "[1]", "value": "blocked"}]}
{"molecule": "rsVCAM: recombinant soluble VCAM, a competitive inhibitor of integrin α4β1 function (protein) FKIETTPESRYLAQIGDSVSLTCSTTGCESPFFSWRTQIDSPLNGKVTNEGTTSTLTMNPVSFGNEHSYLCTATCESRKLEKGIQVEIYSFPKDPEIHLSGPLEAGKPITVKCSVADVYPFDRLEIDLLKGDHLMKSQEFLEDADRKSLETKSLEVTFTPVIEDIGKVLVCRAKLHIDEMDSVPTVRQAVKELQVYISPKNTVISVNPSTKLQEGGSVTMTCSSEGLPAPEIFWSKKLDNGNLQHLSGNATLTLIAMRMEDSGIYVCEGVNLIGKNRKEVELIVQEKPFTVEISPGPRIAAQIGDSVMLTCSVMGCESPSFSWRTQIDSPLSGKVRSEGTNSTLTLSPVSFENEHSYLCTVTCGHKKLEKGIQVELYSFPRDPEIEMSGGLVNGSSVTVSCKVPSVYPLDRLEIELLKGETILENIEFLEDTDMKSLENKSLEMTFIPTIEDTGKALVCQAKLHIDDMEFEPKQRQSTQTLYVNVAPRDTTVLVSPSSILEEGSSVNMTCLSQGFPAPKILWSRQLPNGELQPLSENATLTLISTKMEDSGVYLCEGINQAGRSRKEVELIIQVTPKDIKLTAFPSESVKEGDTVIISCTCGNVPETWIILKKKAETGDTVLKSIDGAYTIRKAQLKDAGVYECESKNKVGSQLRSLTLDVQGRENNKDYFSPE", "values": [{"measurement": "EPC attachment to endothelial monolayers", "setting": "[2]", "value": "blocked"}, {"measurement": "stem cell adhesion to endothelial cell (EC) monolayers", "setting": "human CD34+ stem cells", "value": "blocked"}]}
